These results are taken from patent US20090192084A1.

What all share (assay): Flag co-IP, 293 cells, MudPIT MS
One assay concerns the target endogenous p97 (human) (UniProt P55072).
Another assay addresses T1, endogenous UFD1 (human) (UniProt Q92890).
T1 sequence (looked up): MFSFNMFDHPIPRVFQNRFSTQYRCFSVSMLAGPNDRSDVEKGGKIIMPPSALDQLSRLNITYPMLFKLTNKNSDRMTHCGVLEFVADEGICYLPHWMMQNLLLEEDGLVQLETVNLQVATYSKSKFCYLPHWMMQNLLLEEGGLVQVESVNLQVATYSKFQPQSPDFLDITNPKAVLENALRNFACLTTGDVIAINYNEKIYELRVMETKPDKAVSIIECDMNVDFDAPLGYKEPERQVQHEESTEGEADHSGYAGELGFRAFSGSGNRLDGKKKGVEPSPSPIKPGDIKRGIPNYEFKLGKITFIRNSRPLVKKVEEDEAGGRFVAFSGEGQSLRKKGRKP

The target in the next assay is T2, VCIP135 (human) (UniProt Q96JH7).
T2 sequence (looked up): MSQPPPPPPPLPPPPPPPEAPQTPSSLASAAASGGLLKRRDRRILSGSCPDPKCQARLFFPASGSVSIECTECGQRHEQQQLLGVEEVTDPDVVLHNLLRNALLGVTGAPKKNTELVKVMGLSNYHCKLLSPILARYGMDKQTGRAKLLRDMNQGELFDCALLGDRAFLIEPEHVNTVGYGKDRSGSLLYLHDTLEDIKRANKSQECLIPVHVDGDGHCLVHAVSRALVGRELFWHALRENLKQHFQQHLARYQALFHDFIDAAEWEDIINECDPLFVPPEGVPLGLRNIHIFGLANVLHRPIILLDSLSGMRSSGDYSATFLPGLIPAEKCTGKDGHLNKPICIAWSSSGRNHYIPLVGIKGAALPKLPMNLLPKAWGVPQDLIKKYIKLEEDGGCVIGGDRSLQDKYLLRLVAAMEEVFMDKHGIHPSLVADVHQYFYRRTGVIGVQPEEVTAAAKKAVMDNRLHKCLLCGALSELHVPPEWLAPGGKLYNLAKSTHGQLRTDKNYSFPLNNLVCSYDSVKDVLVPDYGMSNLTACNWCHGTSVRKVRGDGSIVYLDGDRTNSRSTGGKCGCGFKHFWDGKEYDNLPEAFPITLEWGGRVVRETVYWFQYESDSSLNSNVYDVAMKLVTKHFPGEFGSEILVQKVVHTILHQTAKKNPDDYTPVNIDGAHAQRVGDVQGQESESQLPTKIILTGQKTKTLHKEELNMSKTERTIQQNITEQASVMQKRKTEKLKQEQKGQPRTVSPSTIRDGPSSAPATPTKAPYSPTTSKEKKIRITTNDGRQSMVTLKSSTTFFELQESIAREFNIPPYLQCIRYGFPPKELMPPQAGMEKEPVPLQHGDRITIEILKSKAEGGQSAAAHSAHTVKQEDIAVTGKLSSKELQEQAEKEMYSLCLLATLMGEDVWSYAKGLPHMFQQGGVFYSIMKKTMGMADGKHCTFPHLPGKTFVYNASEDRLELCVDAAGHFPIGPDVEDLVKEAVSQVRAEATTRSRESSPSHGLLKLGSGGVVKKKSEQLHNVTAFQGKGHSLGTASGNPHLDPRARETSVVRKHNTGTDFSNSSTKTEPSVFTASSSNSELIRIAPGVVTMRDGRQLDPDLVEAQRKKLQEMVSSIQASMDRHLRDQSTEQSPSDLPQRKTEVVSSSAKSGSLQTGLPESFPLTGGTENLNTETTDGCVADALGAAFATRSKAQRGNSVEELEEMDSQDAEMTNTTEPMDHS

Chain of endogenous p97 (human) (P55072 2-806 limits assumed): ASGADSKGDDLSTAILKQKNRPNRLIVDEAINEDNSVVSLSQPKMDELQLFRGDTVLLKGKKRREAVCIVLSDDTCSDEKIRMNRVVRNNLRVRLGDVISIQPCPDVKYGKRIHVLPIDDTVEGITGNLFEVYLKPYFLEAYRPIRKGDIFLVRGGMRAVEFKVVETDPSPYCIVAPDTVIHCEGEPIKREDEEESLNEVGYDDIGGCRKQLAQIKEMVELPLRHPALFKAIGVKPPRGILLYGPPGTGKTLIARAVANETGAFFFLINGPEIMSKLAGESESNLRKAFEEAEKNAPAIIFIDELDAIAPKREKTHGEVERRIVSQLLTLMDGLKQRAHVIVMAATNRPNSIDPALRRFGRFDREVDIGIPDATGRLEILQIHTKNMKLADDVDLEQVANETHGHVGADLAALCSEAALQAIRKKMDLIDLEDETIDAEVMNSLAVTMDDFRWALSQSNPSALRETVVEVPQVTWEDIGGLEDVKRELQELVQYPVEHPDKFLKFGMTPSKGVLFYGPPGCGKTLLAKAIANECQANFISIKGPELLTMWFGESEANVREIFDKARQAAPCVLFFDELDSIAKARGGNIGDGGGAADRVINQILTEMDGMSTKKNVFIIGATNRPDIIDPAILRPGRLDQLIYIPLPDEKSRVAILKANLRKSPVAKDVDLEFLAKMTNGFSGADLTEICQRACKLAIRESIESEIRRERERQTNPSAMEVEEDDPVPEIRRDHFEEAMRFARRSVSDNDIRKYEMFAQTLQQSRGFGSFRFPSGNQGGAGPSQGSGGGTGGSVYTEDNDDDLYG

B1: Flag-NPL4 (protein, UniProt Q8TAT6 2-608, looked up, species assumed)
Nuclear protein localization protein 4 homolog: AESIIIRVQSPDGVKRITATKRETAATFLKKVAKEFGFQNNGFSVYINRNKTGEITASSNKSLNLLKIKHGDLLFLFPSSLAGPSSEMETSVPPGFKVFGAPNVVEDEIDQYLSKQDGKIYRSRDPQLCRHGPLGKCVHCVPLEPFDEDYLNHLEPPVKHMSFHAYIRKLTGGADKGKFVALENISCKIKSGCEGHLPWPNGICTKCQPSAITLNRQKYRHVDNIMFENHTVADRFLDFWRKTGNQHFGYLYGRYTEHKDIPLGIRAEVAAIYEPPQIGTQNSLELLEDPKAEVVDEIAAKLGLRKVGWIFTDLVSEDTRKGTVRYSRNKDTYFLSSEECITAGDFQNKHPNMCRLSPDGHFGSKFVTAVATGGPDNQVHFEGYQVSNQCMALVRDECLLPCKDAPELGYAKESSSEQYVPDVFYKDVDKFGNEITQLARPLPVEYLIIDITTTFPKDPVYTFSISQNPFPIENRDVLGETQDFHSLATYLSQNTSSVFLDTISDFHLLLFLVTNEVMPLQDSISLLLEAVRTRNEELAQTWKRSEQWATIEQLCSTVGGQLPGLHEYGAVGGSTHTATAAMWACQHCTFMNQPGTGHCEMCSLPRT
modifications: N-terminal Flag tag
For the molecule B1, in the assay with endogenous p97 (human), the sequence count was 79, the sequence coverage worked out at 70.4% and the spectrum count was determined as 414. In addition, in the assay with endogenous UFD1 (human), the sequence count is 14, the sequence coverage is 37.9% and the spectrum count was 22. In the assay with VCIP135 (human), this molecule showed a sequence count of 2, a sequence coverage of 2.5% and a spectrum count of 2.
